Laboratory results as given in patent publication US20100310549A1 (Bristol-Myers Squibb, published 2010).

Target: T1, full-length human KDR on CHO-KDR cells (human, UniProt P35968 20-1356)
T1 construct: whole, on cells; stably transfected CHO-K1 cells
Assay: flow cytometry on CHO-KDR cells, His6-tagged protein, anti-His6 MAb and Alexa Fluor 488 anti-mouse antibody
Protocol: Binding of fibronectin-based scaffold protein to cell-surface KDR and Flk-1 was analyzed simultaneously on VEGF-R2-expressing and control cells by flow cytometry. CHO-pcDNA3 cells (control) were released from their dishes with trypsin-EDTA, washed in Dulbecco's PBS without calcium and magnesium (D-PBS⁻; Invitrogen), and stained for 30 minutes at 37° C. with 1.5 μM CMTMR (5-(and-6)-(((4-chloromethyl)benzoyl)amino)-tetramethylrhodamine) (Molecular Probes). The cells were washed in D-PBS⁻ and incubated for a further 30 minutes at 37° C., and then resuspended in blocking buffer (D-PBS710% fetal bovine serum) on ice. CHO-KDR or CHO-Flk cells were treated identically except that CMTMR was omitted. […] For cells treated with an anti-KDR mouse monoclonal antibody (Accurate Chemical, Westbury, N.Y.) or an anti-flk-1 goat polyclonal antibody (R&D Systems), the anti-His₆ step was omitted, and antibody binding was detected with the species-appropriate Alexa Fluor 488 conjugated secondary antibody (Molecular Probes). Following staining, cells were resuspended in 200 μl/well D-PBS⁻/1% FBS/1 μg/ml 7-aminoactinomycin D (7-AAD; Molecular Probes) and analyzed by flow cytometry on a FACSCalibur (Becton Dickinson, San Jose, Calif.) equipped with a […]. […]

T1 sequence (P35968 20-1356): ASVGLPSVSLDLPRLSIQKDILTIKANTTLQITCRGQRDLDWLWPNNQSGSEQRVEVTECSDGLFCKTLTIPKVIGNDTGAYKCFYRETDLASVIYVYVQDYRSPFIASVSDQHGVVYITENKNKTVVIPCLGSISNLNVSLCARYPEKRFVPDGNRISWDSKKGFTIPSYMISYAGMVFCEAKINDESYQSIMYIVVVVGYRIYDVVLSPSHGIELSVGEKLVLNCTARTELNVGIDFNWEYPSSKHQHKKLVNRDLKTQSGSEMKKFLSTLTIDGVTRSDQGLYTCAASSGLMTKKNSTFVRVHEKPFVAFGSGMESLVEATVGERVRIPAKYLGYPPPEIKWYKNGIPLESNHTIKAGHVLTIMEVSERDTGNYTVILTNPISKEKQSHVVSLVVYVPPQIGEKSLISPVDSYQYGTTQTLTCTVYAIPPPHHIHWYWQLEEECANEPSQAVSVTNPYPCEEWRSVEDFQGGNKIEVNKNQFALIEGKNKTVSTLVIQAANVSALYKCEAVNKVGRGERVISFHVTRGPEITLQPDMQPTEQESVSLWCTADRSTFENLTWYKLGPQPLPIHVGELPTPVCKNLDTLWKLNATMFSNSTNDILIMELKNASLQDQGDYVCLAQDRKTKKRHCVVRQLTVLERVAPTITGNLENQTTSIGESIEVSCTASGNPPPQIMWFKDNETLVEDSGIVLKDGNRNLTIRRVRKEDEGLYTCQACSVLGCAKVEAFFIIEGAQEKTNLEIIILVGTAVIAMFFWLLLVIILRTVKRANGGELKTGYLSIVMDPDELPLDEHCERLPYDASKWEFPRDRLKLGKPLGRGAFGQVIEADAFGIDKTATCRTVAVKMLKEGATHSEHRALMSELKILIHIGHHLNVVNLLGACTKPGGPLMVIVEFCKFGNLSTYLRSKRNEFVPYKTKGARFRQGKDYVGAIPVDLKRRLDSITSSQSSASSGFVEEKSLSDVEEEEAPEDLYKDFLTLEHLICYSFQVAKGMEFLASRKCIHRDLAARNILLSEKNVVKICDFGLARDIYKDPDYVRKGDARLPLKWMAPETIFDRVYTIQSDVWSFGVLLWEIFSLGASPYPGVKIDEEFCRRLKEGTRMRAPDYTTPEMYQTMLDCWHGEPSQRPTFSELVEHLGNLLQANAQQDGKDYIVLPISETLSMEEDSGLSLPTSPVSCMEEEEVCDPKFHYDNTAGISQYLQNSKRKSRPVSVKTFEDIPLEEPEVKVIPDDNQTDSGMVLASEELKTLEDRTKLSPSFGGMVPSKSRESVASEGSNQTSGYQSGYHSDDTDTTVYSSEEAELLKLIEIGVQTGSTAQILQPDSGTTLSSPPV

B1: WT fibronectin-based scaffold protein (wild-type 10Fn3), E. coli, His6 (other)
chain: VSDVPRDLEVVAATPTSLLISWDAPAVTVRYYRITYGETGGNSPVQEFTVPGSKSTATISGLKPGVDYTITGYAVTGRGDSPASSKPISINYRTEIDKPSQHHHHHH
notes: E. coli-expressed soluble form; N-terminal Met not described
- binding result: no binding (tested: log[M] about -6.9 (about 1e-7 M))
